Measured values published in PMC5300155, “Biochemical and biophysical investigations of the interaction between human glucokinase and pro-apoptotic BAD” (PLoS ONE, 2017).
Entries after “also recorded” stand apart in the source; their conditions may differ.

B1: BAD-GST: recombinant human BAD with N-terminal hexahistidine tag and C-terminal GST fusion, TEV consensus sequence between (protein)
chain: MFQIPEFEPSEQEDSSSAERGLGPSPAGDGPSGSGKHHRQAPGLLWDASHQQEQPTSSSHHGGAGAVEIRSRHSSYPAGTEDDEGMGEEPSPFRGRSRSAPPNLWAAQRYGRELRRMSDEFVDSFKKGLPRPKSAGTATQMRQSSSWTRVFQSWWDRNLGRGSSAPSQ
modifications: left off: His6, N-terminal, state not stated | GST, C-terminal, kept

Tests used:
human pancreatic GCK [1] = molecular target: T1, human pancreatic GCK (Homo sapiens, UniProt P35557); test: Isothermal titration calorimetry with GCK; type: binding; details: peptide up to 50 μM into GCK (10 μM), presence and absence of 0.2 M glucose, potassium phosphate 25 mM, DMSO 5%, 25°C
T1 construct: hexahistidine (N); made in house; host or cells: glucokinase auxotroph BM5340(DE3)
T1 sequence (P35557 1-465): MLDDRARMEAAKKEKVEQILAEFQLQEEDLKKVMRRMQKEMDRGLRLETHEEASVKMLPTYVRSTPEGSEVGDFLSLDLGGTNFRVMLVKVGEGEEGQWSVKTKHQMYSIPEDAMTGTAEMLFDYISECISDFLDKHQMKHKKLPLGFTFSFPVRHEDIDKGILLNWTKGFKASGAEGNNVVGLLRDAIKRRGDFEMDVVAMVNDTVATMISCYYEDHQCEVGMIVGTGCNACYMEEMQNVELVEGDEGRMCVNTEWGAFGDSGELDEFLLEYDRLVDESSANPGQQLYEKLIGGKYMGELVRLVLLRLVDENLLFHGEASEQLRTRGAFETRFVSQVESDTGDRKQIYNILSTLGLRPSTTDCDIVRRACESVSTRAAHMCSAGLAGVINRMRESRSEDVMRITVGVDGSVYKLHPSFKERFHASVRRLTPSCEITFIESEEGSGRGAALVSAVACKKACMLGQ
Procedure: Recombinant human pancreatic GCK containing an N-terminal hexahistidine tag was produced in the glucokinase auxotroph BM5340(DE3) and purified using a previously described procedure. TEV protease was expressed as a GST-fusion protein from a pGEX plasmid encoding the S219V variant, provided by David Waugh (Addgene plasmid 8827). Expression was induced with IPTG (1 mM) for 4 h at 30°C. Cell pellets were resuspended in Tris buffer (50 mM, pH 8.0) containing NaCl (100 mM), glycerol (10% v/v), benzamidine (1 mM) and dithiothreitol (10 mM) and lysed via French Press. Polyethyleneimine (0.1%) was added to the lysate and protein was purified on a glutathione-affinity column (GSTrap, GE Sciences). TEV protease was flash frozen and stored at -80°C for up to 1 month.
Isothermal titration calorimetry was performed at 25°C using a MicroCal VP-ITC (GE Healthcare) instrument. Bcl-xL (100 μM) in BAD buffer (0.1 M Tris, 0.1 M KCl, 0.5 M arginine, 2.5 mM CHAPS, 5 mM TCEP, 10% glycerol, pH 8.5) was titrated into the calorimeter cell containing size-exclusion chromatography purified BAD-GST (10–18 μM) in 4 μL injections. A 21-residue phosphorylated peptide containing the BH3 domain of BAD was synthesized and purified to >95% by Peptide2.0 (pBH3 = NLWAAQRYGRELRRM(p)SDKFVD). The peptide (300 μM) in potassium phosphate buffer (25 mM) containing KCl (25 mM), TCEP (4 mM) and DMSO (5%) with and without glucose (200 mM) was titrated into the cell containing GCK (10 μM) previously dialyzed against the same buffer. GCK (100 μM) in BAD buffer was titrated into the cell containing S118D BAD-GST (10–15 μM) in 13 μL injections. Data were analyzed using Origin software.

human pancreatic GCK [2] = molecular target: T1, human pancreatic GCK; test: Size-exclusion chromatography of mixtures with GCK; type: binding; details: mixtures across a range of protein concentrations; BAD buffer pH 8.5, 4°C
Procedure: Size-exclusion chromatography was performed on a HiPrep 16/60 Sephacryl S-200 HR column (GE Healthcare) connected to a Bio-Rad DuoFlow FPLC. The column was calibrated with thyroglobulin (669 kDa), γ-globulin (158 kDa), ovalbumin (43 kDa), myoglobin (17 kDa), and vitamin B12 (1.35 kDa). All proteins were analyzed in BAD buffer (0.1 M Tris, 0.1 M KCl, 0.5 M arginine, 2.5 mM CHAPS, 5 mM TCEP, 10% glycerol, pH 8.5) at a flow rate of 0.02 mL/min at 4°C. Protein samples were concentrated to 800 μL and filtered through 0.2 μm filters before injection onto the size-exclusion column. For complex formation, equimolar mixtures of proteins were added to BAD buffer in a final volume of 800 μL and incubated on ice 30 min prior to injection onto the column.

[3] = Aggregation in refolding buffers (spin-filter assay); type: physicochemical; details: CHAPS (2.5 mM) and arginine (0.5 M)
Procedure: To determine buffer conditions for BAD-GST refolding, we made use of a spin-filter assay developed by Bondos and Bicknell. Purified protein was collected after size-exclusion chromatography and diluted into test buffers containing various stabilizers and detergents, including Triton-X (0.2%), CHAPS (1.25–6.0 mM), arginine (0.1–0.6 M), glycerol (20%) or urea (1.5 M). After overnight incubation at 4°C, diluted protein was filtered across a 100,000 MWCO microconcentrator (Amicon Ultra 0.5, EMD Millipore) at 14,000 x g. Concentrate was considered aggregated protein, while flow through was considered non-aggregated protein. Concentrate and flow through were resuspended to equal volumes and analyzed via SDS-PAGE; protein was visualized with SYPRO Ruby stain on a fluorescence imaging scanner. ImageJ software was used to measure ratios of non-aggregated to aggregated protein [26].

Bcl-xL = molecular target: T2, Bcl-xL (Homo sapiens, UniProt Q07817, DEL45-84); test: Isothermal titration calorimetry of BAD-GST with Bcl-xL; type: binding; details: ITC, 25°C; Bcl-xL (100 μM) titrated into BAD-GST (10–18 μM), 4 μL injections, BAD buffer pH 8.5; average of two independent experiments
T2 construct: made in house
T2 sequence (Q07817 with tags, fused parts or gaps DEL45-84): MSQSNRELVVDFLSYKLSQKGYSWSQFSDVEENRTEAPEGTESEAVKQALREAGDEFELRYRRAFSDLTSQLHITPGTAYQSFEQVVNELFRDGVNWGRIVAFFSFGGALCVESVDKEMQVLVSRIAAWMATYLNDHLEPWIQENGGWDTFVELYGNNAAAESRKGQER
Procedure: Exon 1 of human bcl-xl lacking the C-terminal residues 189–233 was obtained from Stanley Korsmeyer (Addgene plasmid 8755) and site-directed mutagenesis was performed to create the Δ45–84, Δ210–233 variant. Bcl-xL was expressed and purified using a modified procedure described previously. Briefly, Bcl-xL was purified by nickel affinity chromatography and dialyzed against potassium phosphate buffer (20 mM, pH 7.4) containing NaCl (50 mM), EDTA (1 mM), and DTT (10 mM). Protein was applied to a Superdex 200 10/30 HR size-exclusion column, at a flow rate of 0.02 mL/min, to remove aggregate and oligomers prior to binding assays.
Isothermal titration calorimetry was performed at 25°C using a MicroCal VP-ITC (GE Healthcare) instrument. Bcl-xL (100 μM) in BAD buffer (0.1 M Tris, 0.1 M KCl, 0.5 M arginine, 2.5 mM CHAPS, 5 mM TCEP, 10% glycerol, pH 8.5) was titrated into the calorimeter cell containing size-exclusion chromatography purified BAD-GST (10–18 μM) in 4 μL injections. A 21-residue phosphorylated peptide containing the BH3 domain of BAD was synthesized and purified to >95% by Peptide2.0 (pBH3 = NLWAAQRYGRELRRM(p)SDKFVD). […] Data were analyzed using Origin software.

[4] = Circular dichroism spectroscopy (secondary structure); type: physicochemical; details: far UV CD, 25°C, pH 7.8, 3–15 μM, CDPro
Procedure: Proteins were dialyzed overnight into potassium phosphate buffer (50 mM, pH 7.8) containing KCl (50 mM), glycerol (5% v/v), and TCEP (4 mM). CD spectra were recorded on an AVIV 202 CD spectrometer at 25°C with protein concentrations ranging from 3–15 μM. Spectra were recorded from 200–260 nm in 10 mm pathlength cuvettes using a 1 nm step resolution and 3 s integration time. Three scans were recorded per sample, averaged, and baseline subtracted with appropriate buffer controls. CD signals were converted to molar ellipticity and deconvoluted using CDPro Software.

| Molecule | Heat change on addition to GCK (ITC) (human pancreatic GCK [1]) | Heat change on addition to GCK (ITC) (human pancreatic GCK [1]; listed as phosphorylated BH3 peptide) | Complex with GCK by size-exclusion chromatography (human pancreatic GCK [2]) | Aggregation, effect of refolding additives [3] | Kd (Bcl-xL) | Random coil content [4] | α-helical content [4] | β-sheet content [4] |
| --- | --- | --- | --- | --- | --- | --- | --- | --- |
| NLWAAQRYGRELRRM(p)SDKFVD [pBH3, 21-residue phosphorylated peptide containing the BH3 domain of BAD] | No detectable heat change | do not indicate an interaction | – | – | – | – | – | – |
| B1 | – | – | No evidence of a higher molecular weight complex is observed; also recorded: provides no evidence of complex formation | essential to prevent aggregation of recombinant BAD | 7 nM | 30% | 10% | 37% |
